Source: article PMC6773797, “Identification and molecular characterization of a psychrophilic GH1 β-glucosidase from the subtropical soil microorganism Exiguobacterium sp. GXG2” (AMB Express, 2019)

Substrate: O=[N+]([O-])c1ccc(O[C@@H]2O[C@H](CO)[C@@H](O)[C@H](O)[C@H]2O)cc1
Assay: purified protein
Assay type: biochemical, Exiguobacterium sp. GXG2
Details: pH 7.0, 35 °C, 1–10 mM substrate

B1: BglG (Exiguobacterium sp. GXG2) (protein)
chain: MKMPKDFLFGAASASYQVEGAWNVDGKGVSNWDVFSKIPGKTFEATNGDVAIDHYHRYKEDIGLMAEMGLESYRFSISWPRIFPNGTGEVNEKGLEFYNNVIDECLKHGIVPFVTLYHWDLPQVLEEQGGWRSPETADAFVRFAKTCFEAFGDRVRNWITFNETVIFCSLGYLTGAHPPGITGDAKAYFQTTHNVFVAHARAVEAFKEAGYEGEIGITHVFNPAFSIDEAPENKQAEVHANEYATHWFYDPILKGEYPAYVVKDLEKQGLLPEWTEEELDLLKRTAPLNDFIGLNYYCPQRVMKNDSALVMAGGRENSTGRPGNPSFDGVYKTVLMDDKVYTKWGWEIAPDAFLEGMRMLQARYGDIKIYITENGLGDEDPIVGEEIMDTPRIEYIESHLRAVKRAVEEGINVSGYYAWSVIDLLSWLNGYKKQYGFIYVDHANGLARKKKQSFHWYQEIIATRAAEL
notes: six-histidine tag kept, about 58 kDa on SDS-PAGE; pETBlue-2, E. coli Tuner(DE3)pLacI; Ni-NTA purified
What does the source list for B1?
Km: 1100 µM; kcat: 12.7 s⁻¹
